From IntAct's records for PubMed 18387954

B1: Src substrate cortactin (Homo sapiens), Q14247 (parent)
chain: MWKASAGHAVSIAQDDAGADDWETDPDFVNDVSEKEQRWGAKTVQGSGHQEHINIHKLRENVFQEHQTLKEKELETGPKASHGYGGKFGVEQDRMDKSAVGHEYQSKLSKHCSQVDSVRGFGGKFGVQMDRVDQSAVGFEYQGKTEKHASQKDYSSGFGGKYGVQADRVDKSAVGFDYQGKTEKHESQRDYSKGFGGKYGIDKDKVDKSAVGFEYQGKTEKHESQKDYVKGFGGKFGVQTDRQDKCALGWDHQEKLQLHESQKDYKTGFGGKFGVQSERQDSAAVGFDYKEKLAKHESQQDYSKGFGGKYGVQKDRMDKNASTFEDVTQVSSAYQKTVPVEAVTSKTSNIRANFENLAKEKEQEDRRKAEAERAQRMAKERQEQEEARRKLEEQARAKTQTPPVSPAPQPTEERLPSSPVYEDAASFKAELSYRGPVSGTEPEPVYSMEAADYREASSQQGLAYATEAVYESAEAPGHYPAEDSTYDEYENDLGITAVALYDYQAAGDDEISFDPDDIITNIEMIDDGWWRGVCKGRYGLFPANYVELRQ
partner: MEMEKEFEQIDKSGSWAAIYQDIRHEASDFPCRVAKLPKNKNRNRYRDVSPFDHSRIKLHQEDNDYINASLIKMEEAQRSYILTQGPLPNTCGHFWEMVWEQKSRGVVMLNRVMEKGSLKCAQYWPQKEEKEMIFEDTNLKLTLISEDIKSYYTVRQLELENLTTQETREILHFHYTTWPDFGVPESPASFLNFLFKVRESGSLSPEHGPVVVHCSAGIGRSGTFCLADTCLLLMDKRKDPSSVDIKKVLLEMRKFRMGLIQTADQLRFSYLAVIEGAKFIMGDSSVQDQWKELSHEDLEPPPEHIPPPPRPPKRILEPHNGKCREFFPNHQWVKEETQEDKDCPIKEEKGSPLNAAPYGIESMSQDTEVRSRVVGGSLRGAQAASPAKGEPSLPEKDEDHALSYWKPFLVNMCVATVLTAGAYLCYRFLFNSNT

Variants of: B1
Conditions: with ptn1_human PTPN1, P18031
For Y446F, the “effect of a mutation on the interaction” value was “disrupting interaction”.
